PMC9482650, “Quantitative fragmentomics allow affinity mapping of interactomes” (Nature Communications, 2022)

How the values were obtained:
Test in all cases: holdup assay
Design in all cases: key: below the threshold = too weak to quantify, mostly under pKd 3.1 to 4
Details in all cases: plain residues with an end cap or a label only (N-terminal biotin on a linker: ttds)
Q9NR12 = target: Q9NR12
Q9UDY2 = target: Q9UDY2
RGS12, O14924 = target: T1, RGS12, O14924
T1 sequence (O14924 17-108, limits assumed, looked up): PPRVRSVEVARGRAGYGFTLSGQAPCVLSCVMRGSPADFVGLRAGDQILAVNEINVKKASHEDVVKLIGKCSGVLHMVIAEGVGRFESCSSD

Q8TB45 = target: Q8TB45
O60759 = target: O60759
O75970 = target: O75970
Q8TEW0 = target: Q8TEW0
Q70Z35 = target: Q70Z35
Q9Y3R0 = target: Q9Y3R0
O00233 = target: O00233
LIMK1, P53667 = target: LIMK1, P53667
LIMK1, P53667, sequence (P53667 155-268): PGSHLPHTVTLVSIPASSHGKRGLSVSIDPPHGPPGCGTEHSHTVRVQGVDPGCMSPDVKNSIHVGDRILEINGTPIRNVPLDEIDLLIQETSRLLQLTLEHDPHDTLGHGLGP

Q9UMS6 = target: Q9UMS6
Q8TDM6 = target: Q8TDM6
Q9NPB6 = target: Q9NPB6
Q9C0E4 = target: Q9C0E4
Q9P227 = target: Q9P227
Q13009 = target: Q13009
Q13368 = target: Q13368
Q9ULJ8 = target: Q9ULJ8
INTU, Q9ULD6 = target: T2, INTU, Q9ULD6
T2 sequence (Q9ULD6 180-273, limits assumed, looked up): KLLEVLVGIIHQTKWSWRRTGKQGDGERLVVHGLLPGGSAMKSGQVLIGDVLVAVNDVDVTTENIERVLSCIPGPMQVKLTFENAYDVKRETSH

Q8IUC4 = target: Q8IUC4
Q12923 = target: Q12923
GIPC3, Q8TF64 = target: GIPC3, Q8TF64
GIPC3, Q8TF64, sequence (Q8TF64 107-202): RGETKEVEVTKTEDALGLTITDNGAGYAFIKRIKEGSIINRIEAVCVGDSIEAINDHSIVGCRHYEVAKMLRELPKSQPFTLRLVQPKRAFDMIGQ

Q96SB3 = target: Q96SB3
Q9H190 = target: Q9H190
O43166 = target: O43166

## DPLTPSRSQL [DGKK, Q5KSL6]
Q9NR12
  pKd: below the threshold
Q9UDY2
  pKd: below the threshold
RGS12, O14924
  pKd: below the threshold
Q8TB45
  pKd: below the threshold
O60759
  pKd: below the threshold
O75970
  pKd: below the threshold
Q8TEW0
  pKd: below the threshold
Q70Z35
  pKd: below the threshold
Q9Y3R0
  pKd: below the threshold
O00233
  pKd: below the threshold
LIMK1, P53667
  pKd: 4.32
Q9UMS6
  pKd: below the threshold
Q8TDM6
  pKd: below the threshold
Q9NPB6
  pKd: below the threshold
Q9C0E4
  pKd: below the threshold
Q9P227
  pKd: below the threshold
Q13009
  pKd: below the threshold
Q13368
  pKd: below the threshold
Q9ULJ8
  pKd: below the threshold
INTU, Q9ULD6
  pKd: below the threshold
Q8IUC4
  pKd: below the threshold
Q12923
  pKd: below the threshold
GIPC3, Q8TF64
  pKd: below the threshold
Q96SB3
  pKd: below the threshold
Q9H190
  pKd: below the threshold
O43166
  pKd: below the threshold

## RTRQRNETQV [HPV51-E6, P26554]
Q9NR12
  pKd: below the threshold
Q9UDY2
  pKd: below the threshold
RGS12, O14924
  pKd: below the threshold
Q8TB45
  pKd: below the threshold
O60759
  pKd: below the threshold
O75970
  pKd: below the threshold
Q8TEW0
  pKd: below the threshold
Q70Z35
  pKd: below the threshold
Q9Y3R0
  pKd: below the threshold
O00233
  pKd: below the threshold
LIMK1, P53667
  pKd: below the threshold
Q9UMS6
  pKd: below the threshold
Q8TDM6
  pKd: below the threshold
Q9NPB6
  pKd: below the threshold
Q9C0E4
  pKd: below the threshold
Q9P227
  pKd: below the threshold
Q13009
  pKd: below the threshold
Q13368
  pKd: below the threshold
Q9ULJ8
  pKd: below the threshold
INTU, Q9ULD6
  pKd: below the threshold
Q8IUC4
  pKd: below the threshold
Q12923
  pKd: below the threshold
GIPC3, Q8TF64
  pKd: below the threshold
Q9H190
  pKd: below the threshold
O43166
  pKd: below the threshold

## NYWPGKETQL [SLCO1C1, Q9NYB5]
Q9NR12
  pKd: below the threshold
Q9UDY2
  pKd: below the threshold
RGS12, O14924
  pKd: below the threshold
Q8TB45
  pKd: below the threshold
O60759
  pKd: below the threshold
O75970
  pKd: below the threshold
Q8TEW0
  pKd: below the threshold
Q70Z35
  pKd: below the threshold
Q9Y3R0
  pKd: below the threshold
O00233
  pKd: below the threshold
LIMK1, P53667
  pKd: below the threshold
Q9UMS6
  pKd: below the threshold
Q8TDM6
  pKd: below the threshold
Q9NPB6
  pKd: below the threshold
Q9C0E4
  pKd: below the threshold
Q9P227
  pKd: below the threshold
Q13009
  pKd: below the threshold
Q13368
  pKd: below the threshold
Q9ULJ8
  pKd: below the threshold
INTU, Q9ULD6
  pKd: below the threshold
Q8IUC4
  pKd: below the threshold
Q12923
  pKd: below the threshold
GIPC3, Q8TF64
  pKd: below the threshold
Q96SB3
  pKd: below the threshold
Q9H190
  pKd: below the threshold
O43166
  pKd: below the threshold

## IQREDQETAV [DGKZ, Q13574]
Q9NR12
  pKd: below the threshold
Q9UDY2
  pKd: below the threshold
RGS12, O14924
  pKd: below the threshold
Q8TB45
  pKd: below the threshold
O60759
  pKd: below the threshold
O75970
  pKd: below the threshold
Q8TEW0
  pKd: below the threshold
Q70Z35
  pKd: below the threshold
Q9Y3R0
  pKd: below the threshold
O00233
  pKd: below the threshold
Q9UMS6
  pKd: below the threshold
Q8TDM6
  pKd: below the threshold
Q9NPB6
  pKd: below the threshold
Q9C0E4
  pKd: below the threshold
Q9P227
  pKd: below the threshold
Q13009
  pKd: below the threshold
Q13368
  pKd: below the threshold
Q9ULJ8
  pKd: below the threshold
Q8IUC4
  pKd: below the threshold
Q12923
  pKd: below the threshold
GIPC3, Q8TF64
  pKd: below the threshold
Q96SB3
  pKd: below the threshold
Q9H190
  pKd: below the threshold
O43166
  pKd: below the threshold
